According to the supplement of paper PMC10567573:

B1: ALKBH7 (parent)
chain: SVICRSLPEGMGPGESGQPPPAC

Variants of: B1
Assay: protein stability index of a GFP-peptide fusion (GPS, HEK-293T) (PSI 1-6); higher = more stable
Details: c terminus: native
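Also: lentivirally expressed fusions sorted by FACS into six bins by GFP to DsRed ratio, PSI derived from sequencing read proportions per bin multiplied by bin number.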

Going from SVICRSLPEGMGPGVSGQPPPAC [E15V] to SVICRSLPEGMGPGGSGQPPPAC [E15G], the protein stability index falls from 2.44 to 1.82.

Going from SVICRSLPEGMGPGHSGQPPPAC [E15H] to SVICRSLPEGMGPGLSGQPPPAC [E15L], the protein stability index falls from 1.71 to 1.02.

First: SVICRSLPEGMGPGMSGQPPPAC [E15M]
Second: SVICRSLPEGMGPGQSGQPPPAC [E15Q]
The protein stability index of the first is higher: 2.4 for the first, 1.16 for the second.

Going from SVICRSLPEGMGPGKSGQPPPAC [E15K] to SVICRSLPEGMGPGEPGQPPPAC [S16P], the protein stability index rises from 1.62 to 2.07.

Going from SVICRSLPEGMGPGENGQPPPAC [S16N] to SVICRSLPEGMGPGEAGQPPPAC [S16A], the protein stability index falls from 2.06 to 1.97.

Going from SVICRSLPEGMGPGEDGQPPPAC [S16D] to SVICRSLPEGMGPGEKGQPPPAC [S16K], the protein stability index rises from 2.2 to 2.28.

First: SVICRSLPEGMGPGEIGQPPPAC [S16I]
Second: SVICRSLPEGMGPGEEGQPPPAC [S16E]
The protein stability index of the first is lower: 1.59 for the first, 1.81 for the second.

Going from SVICRSLPEGMGPGEFGQPPPAC [S16F] to SVICRSLPEGMGPGEMGQPPPAC [S16M], the protein stability index rises from 2.37 to 2.59.

First: SVICRSLPEGMGPGEGGQPPPAC [S16G]
Second: SVICRSLPEGMGPGEHGQPPPAC [S16H]
The protein stability index of the first is higher: 2.29 for the first, 2.07 for the second.

First: SVICRSLPEGMGPNESGQPPPAC [G14N]
Second: SVICRSLPEGMGPTESGQPPPAC [G14T]
The protein stability index of the first is higher: 2.42 for the first, 1.77 for the second.

First: SVICRSLPEGMGPKESGQPPPAC [G14K]
Second: SVICRSLPEGMGPSESGQPPPAC [G14S]
The protein stability index of the first is higher: 1.58 for the first, 1.42 for the second.

First: SVICRSLPEGMGPCESGQPPPAC [G14C]
Second: SVICRSLPEGMGPIESGQPPPAC [G14I]
The protein stability index of the first is higher: 1.52 for the first, 1.24 for the second.

Going from SVICRSLPEGMGPEESGQPPPAC [G14E] to SVICRSLPEGMGPQESGQPPPAC [G14Q], the protein stability index rises from 1.53 to 2.4.

Going from SVICRSLPEGMGPVESGQPPPAC [G14V] to SVICRSLPEGMGPFESGQPPPAC [G14F], the protein stability index rises from 1.15 to 1.61.

Compared with SVICRSLPEGMGPDESGQPPPAC [G14D], SVICRSLPEGMGPHESGQPPPAC [G14H] is lower in protein stability index: 2.25 for the first, 2.07 for the second.

First: SVICRSLPEGMGPLESGQPPPAC [G14L]
Second: SVICRSLPEGMGPAESGQPPPAC [G14A]
The protein stability index of the first is lower: 2 for the first, 2.37 for the second.

Going from SVICRSLPEGMGPMESGQPPPAC [G14M] to SVICRSLPEGMGPWESGQPPPAC [G14W], the protein stability index falls from 1.63 to 1.26.

Compared with SVICRSLPEGMGPRESGQPPPAC [G14R], SVICRSLPEGMGVGESGQPPPAC [P13V] is lower in protein stability index: 1.67 for the first, 1.4 for the second.

Compared with SVICRSLPEGMGCGESGQPPPAC [P13C], SVICRSLPEGMGWGESGQPPPAC [P13W] is lower in protein stability index: 1.92 for the first, 1.57 for the second.

Going from SVICRSLPEGMGMGESGQPPPAC [P13M] to SVICRSLPEGMGEGESGQPPPAC [P13E], the protein stability index rises from 1.55 to 1.92.

Compared with SVICRSLPEGMGGGESGQPPPAC [P13G], SVICRSLPEGMGLGESGQPPPAC [P13L] is lower in protein stability index: 1.58 for the first, 1.39 for the second.

Going from SVICRSLPEGMGRGESGQPPPAC [P13R] to SVICRSLPEGMGFGESGQPPPAC [P13F], the protein stability index falls from 3.33 to 1.55.

Going from SVICRSLPEGMGYGESGQPPPAC [P13Y] to SVICRSLPEGMGIGESGQPPPAC [P13I], the protein stability index rises from 1.74 to 1.75.

Going from SVICRSLPEGMGTGESGQPPPAC [P13T] to SVICRSLPEGMGAGESGQPPPAC [P13A], the protein stability index falls from 1.81 to 1.73.

SVICRSLPEGMGNGESGQPPPAC [P13N] and SVICRSLPEGMGDGESGQPPPAC [P13D] are the same in protein stability index: 2.4 for the first, 2.4 for the second.

Compared with SVICRSLPEGMGQGESGQPPPAC [P13Q], SVICRSLPEGMGSGESGQPPPAC [P13S] is lower in protein stability index: 2.38 for the first, 2.35 for the second.

Compared with SVICRSLPEGMGKGESGQPPPAC [P13K], SVICRSLPEGMGHGESGQPPPAC [P13H] is higher in protein stability index: 2.16 for the first, 2.18 for the second.

Going from SVICKSLPEGMGPGESGQPPPAC [R5K] to SVICGSLPEGMGPGESGQPPPAC [R5G], the protein stability index falls from 2.32 to 2.09.

First: SVICDSLPEGMGPGESGQPPPAC [R5D]
Second: SVICHSLPEGMGPGESGQPPPAC [R5H]
The protein stability index of the first is lower: 2.56 for the first, 2.73 for the second.

First: SVICESLPEGMGPGESGQPPPAC [R5E]
Second: SVICLSLPEGMGPGESGQPPPAC [R5L]
The protein stability index of the first is higher: 2.46 for the first, 1.66 for the second.

Compared with SVICQSLPEGMGPGESGQPPPAC [R5Q], SVICPSLPEGMGPGESGQPPPAC [R5P] is higher in protein stability index: 2.04 for the first, 2.59 for the second.

Going from SVICNSLPEGMGPGESGQPPPAC [R5N] to SVICCSLPEGMGPGESGQPPPAC [R5C], the protein stability index rises from 1.7 to 2.28.

Compared with SVICASLPEGMGPGESGQPPPAC [R5A], SVICISLPEGMGPGESGQPPPAC [R5I] is lower in protein stability index: 1.88 for the first, 1.44 for the second.

Compared with SVICTSLPEGMGPGESGQPPPAC [R5T], SVICFSLPEGMGPGESGQPPPAC [R5F] is lower in protein stability index: 2.1 for the first, 1.51 for the second.

Compared with SVICSSLPEGMGPGESGQPPPAC [R5S], SVICYSLPEGMGPGESGQPPPAC [R5Y] is lower in protein stability index: 2.65 for the first, 1.46 for the second.

First: SVICMSLPEGMGPGESGQPPPAC [R5M]
Second: SVICRHLPEGMGPGESGQPPPAC [S6H]
The protein stability index of the first is lower: 1.8 for the first, 2.71 for the second.

Compared with SVICRELPEGMGPGESGQPPPAC [S6E], SVICRRLPEGMGPGESGQPPPAC [S6R] is lower in protein stability index: 3.01 for the first, 1.95 for the second.

First: SVICRMLPEGMGPGESGQPPPAC [S6M]
Second: SVICRALPEGMGPGESGQPPPAC [S6A]
The protein stability index of the first is lower: 1.68 for the first, 2.01 for the second.

Going from SVICRYLPEGMGPGESGQPPPAC [S6Y] to SVICRDLPEGMGPGESGQPPPAC [S6D], the protein stability index rises from 2.25 to 2.54.

Compared with SVICRCLPEGMGPGESGQPPPAC [S6C], SVICRILPEGMGPGESGQPPPAC [S6I] is lower in protein stability index: 2.03 for the first, 1.43 for the second.

First: SVICRKLPEGMGPGESGQPPPAC [S6K]
Second: SVICRPLPEGMGPGESGQPPPAC [S6P]
The protein stability index of the first is higher: 2.28 for the first, 2.05 for the second.

Going from SVICRTLPEGMGPGESGQPPPAC [S6T] to SVICRLLPEGMGPGESGQPPPAC [S6L], the protein stability index falls from 2.07 to 1.6.

Going from SVICRQLPEGMGPGESGQPPPAC [S6Q] to SVIKRSLPEGMGPGESGQPPPAC [C4K], the protein stability index falls from 2.08 to 1.37.

First: SVIPRSLPEGMGPGESGQPPPAC [C4P]
Second: SVINRSLPEGMGPGESGQPPPAC [C4N]
The protein stability index of the first is higher: 2.4 for the first, 2.24 for the second.

First: SVIVRSLPEGMGPGESGQPPPAC [C4V]
Second: SVISRSLPEGMGPGESGQPPPAC [C4S]
The protein stability index of the first is lower: 1.63 for the first, 1.82 for the second.

Compared with SVIQRSLPEGMGPGESGQPPPAC [C4Q], SVIWRSLPEGMGPGESGQPPPAC [C4W] is lower in protein stability index: 2.83 for the first, 2.62 for the second.

Going from SVIMRSLPEGMGPGESGQPPPAC [C4M] to SVITRSLPEGMGPGESGQPPPAC [C4T], the protein stability index falls from 1.75 to 1.62.

Going from SVILRSLPEGMGPGESGQPPPAC [C4L] to SVIYRSLPEGMGPGESGQPPPAC [C4Y], the protein stability index falls from 2.03 to 1.47.

Variant SVIRRSLPEGMGPGESGQPPPAC [C4R] has a protein stability index of 1.72.
